This passage reports percent bound results from article PMC4834876.

This assay concerns the target Taxol-stabilised microtubules of porcine brain tubulin (porcine) (UniProt P02550). Nature of the assay: co-sedimentation.

EB1 full-length (end-binding protein 1), wild type, sequence (Q15691 whole entry): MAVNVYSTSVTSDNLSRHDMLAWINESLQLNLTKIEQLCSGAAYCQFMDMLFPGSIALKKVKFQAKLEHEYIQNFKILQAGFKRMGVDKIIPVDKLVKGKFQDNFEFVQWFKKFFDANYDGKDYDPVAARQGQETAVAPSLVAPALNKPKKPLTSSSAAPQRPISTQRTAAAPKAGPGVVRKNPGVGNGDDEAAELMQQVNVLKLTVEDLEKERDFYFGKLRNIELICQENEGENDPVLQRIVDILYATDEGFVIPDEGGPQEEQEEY

The substance “EB1 full-length (end-binding protein 1), wild type (from UniProt Q15691 1-268) (natural protein)” displayed a percent bound of 50%.
